Substitutions are numbered along the chain they refer to. Names and notes keep the numbering of the source. Where two headings read alike, the source gives them in different places.
T1: human FLT3 on AML5 cells (human, UniProt P36888 27-993)
T1 sequence (looked up): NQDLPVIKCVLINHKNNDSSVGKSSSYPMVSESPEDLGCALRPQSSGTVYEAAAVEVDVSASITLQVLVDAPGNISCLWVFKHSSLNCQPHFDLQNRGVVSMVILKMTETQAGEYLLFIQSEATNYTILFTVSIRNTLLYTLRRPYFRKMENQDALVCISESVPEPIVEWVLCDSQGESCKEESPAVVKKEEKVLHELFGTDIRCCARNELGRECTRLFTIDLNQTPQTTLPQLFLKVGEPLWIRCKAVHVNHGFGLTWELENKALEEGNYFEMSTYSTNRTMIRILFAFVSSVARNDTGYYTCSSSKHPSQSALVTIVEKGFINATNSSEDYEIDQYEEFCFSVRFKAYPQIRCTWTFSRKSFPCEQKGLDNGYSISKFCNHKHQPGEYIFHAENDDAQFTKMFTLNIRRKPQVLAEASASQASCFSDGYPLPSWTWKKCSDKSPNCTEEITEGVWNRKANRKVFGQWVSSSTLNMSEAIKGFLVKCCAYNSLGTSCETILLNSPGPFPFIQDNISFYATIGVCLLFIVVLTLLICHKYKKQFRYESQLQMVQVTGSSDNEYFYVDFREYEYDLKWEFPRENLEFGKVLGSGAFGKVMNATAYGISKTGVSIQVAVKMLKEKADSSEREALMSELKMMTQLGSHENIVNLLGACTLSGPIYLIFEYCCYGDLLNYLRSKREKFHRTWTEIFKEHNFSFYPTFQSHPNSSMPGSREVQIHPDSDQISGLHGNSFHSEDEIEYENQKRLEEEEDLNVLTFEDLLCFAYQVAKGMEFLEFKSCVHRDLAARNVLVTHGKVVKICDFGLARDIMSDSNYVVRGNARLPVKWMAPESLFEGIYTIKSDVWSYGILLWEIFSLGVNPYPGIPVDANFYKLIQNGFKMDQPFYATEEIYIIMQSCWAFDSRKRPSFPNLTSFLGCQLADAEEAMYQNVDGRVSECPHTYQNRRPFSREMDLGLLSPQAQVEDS

B1: human FLT3-ligand (Δ5 amino acid) human IgG4 (S228P/F234A/L235A/M252Y/S254T/T256E) fusion protein (SEQ ID NO:14) (Fc fusion)
chain: TQDCSFQHSPISSDFAVKIRELSDYLLQDYPVTVASNLQDEELCGGLWRLVLAQRWMERLKTVAGSKMQGLLERVNTEIHFVTKCAFQPPPSCLRFVQTNISRLLQETSEQLVALKPWITRQNFSRCLELQCQPDSSTLPPPWSPRPLEATAESKYGPPCPPCPAPEAAGGPSVFLFPPKPKDTLYITREPEVTCVVVDVSQEDPEVQFNWYVDGVEVHNAKTKPREEQFNSTYRVVSVLTVLHQDWLNGKEYKCKVSNKGLPSSIEKTISKAKGQPREPQVYTLPPSQEEMTKNQVSLTCLVKGFYPSDIAVEWESNGQPENNYKTTPPVLDSDGSFFLYSRLTVDKSRWQEGNVFSCSVMHEALHNHYTQKSLSLSLGK
notes: also called FLT3L ECD (Δ C-term 5aa (PTAPQ))-hG4 (S228P/F234A/L235A/M252Y/S254T/T256E)
B2: human FLT3-ligand human hingeless IgG1 fusion protein (SEQ ID NO:1) (Fc fusion)
chain: TQDCSFQHSPISSDFAVKIRELSDYLLQDYPVTVASNLQDEELCGGLWRLVLAQRWMERLKTVAGSKMQGLLERVNTEIHFVTKCAFQPPPSCLRFVQTNISRLLQETSEQLVALKPWITRQNFSRCLELQCQPDSSTLPPPWSPRPLEATAPTAPQGGPSVFLFPPKPKDTLMISRTPEVTCVVVDVSHEDPEVKFNWYVDGVEVHNAKTKPREEQYNSTYRVVSVLTVLHQDWLNGKEYKCKVSNKALPAPIEKTISKAKGQPREPQVYTLPPSREEMTKNQVSLTCLVKGFYPSDIAVEWESNGQPENNYKTTPPVLDSDGSFFLYSKLTVDKSRWQQGNVFSCSVMHEALHNHYTQKSLSLSPGK
notes: Made in Expi293 or ExpiCHO; also called FLT3L ECD-hingeless hG1; hFLT3L ECD
B3: human FLT3-ligand (S128A/S151A) human hingeless IgG1 fusion protein (SEQ ID NO:5) (Fc fusion)
chain: B2 chain with S102A, S125A
notes: also called Aglyco-FLT3L ECD (S128A/S151A) hingeless hG1
B4: human FLT3-ligand human hingeless IgG1 (M252Y/S254T/T256E) fusion protein (SEQ ID NO:9) (Fc fusion)
chain: B2 chain with M174Y, S176T, T178E
notes: also called FLT3L ECD-hingeless hG1 (M252Y/S254T/T256E)
B5: human FLT3-ligand (Δ5 amino acid) human hingeless IgG1 fusion protein (SEQ ID NO:2) (Fc fusion)
chain: TQDCSFQHSPISSDFAVKIRELSDYLLQDYPVTVASNLQDEELCGGLWRLVLAQRWMERLKTVAGSKMQGLLERVNTEIHFVTKCAFQPPPSCLRFVQTNISRLLQETSEQLVALKPWITRQNFSRCLELQCQPDSSTLPPPWSPRPLEATAGGPSVFLFPPKPKDTLMISRTPEVTCVVVDVSHEDPEVKFNWYVDGVEVHNAKTKPREEQYNSTYRVVSVLTVLHQDWLNGKEYKCKVSNKALPAPIEKTISKAKGQPREPQVYTLPPSREEMTKNQVSLTCLVKGFYPSDIAVEWESNGQPENNYKTTPPVLDSDGSFFLYSKLTVDKSRWQQGNVFSCSVMHEALHNHYTQKSLSLSPGK
notes: also called FLT3L ECD (Δ C-term 5aa (PTAPQ))-hingeless hG1
B6: human FLT3-ligand (Δ10 amino acid) human hingeless IgG1 fusion protein (SEQ ID NO:7) (Fc fusion)
chain: TQDCSFQHSPISSDFAVKIRELSDYLLQDYPVTVASNLQDEELCGGLWRLVLAQRWMERLKTVAGSKMQGLLERVNTEIHFVTKCAFQPPPSCLRFVQTNISRLLQETSEQLVALKPWITRQNFSRCLELQCQPDSSTLPPPWSPRPGGPSVFLFPPKPKDTLMISRTPEVTCVVVDVSHEDPEVKFNWYVDGVEVHNAKTKPREEQYNSTYRVVSVLTVLHQDWLNGKEYKCKVSNKALPAPIEKTISKAKGQPREPQVYTLPPSREEMTKNQVSLTCLVKGFYPSDIAVEWESNGQPENNYKTTPPVLDSDGSFFLYSKLTVDKSRWQQGNVFSCSVMHEALHNHYTQKSLSLSPGK

Tests used:
[1] = molecular target: T2, recombinant human C1q protein (Fitzgerald) (human, UniProt P02745 23-245; P02746 28-253; P02747 29-245, limits assumed); test: ELISA; test protein immobilised in serial dilution, recombinant human C1q added, anti-C1q-HRP
T2 construct: also called human recombinant complement protein, C1q
T2 sequence (P02745 23-245 limits assumed, chain 1 of 3): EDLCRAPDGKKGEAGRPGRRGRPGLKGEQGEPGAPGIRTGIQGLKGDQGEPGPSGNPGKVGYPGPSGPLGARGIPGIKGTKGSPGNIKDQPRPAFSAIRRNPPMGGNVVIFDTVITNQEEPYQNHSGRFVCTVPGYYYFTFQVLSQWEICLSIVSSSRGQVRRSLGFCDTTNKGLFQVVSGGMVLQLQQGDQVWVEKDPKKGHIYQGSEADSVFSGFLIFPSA
T2 sequence (P02746 28-253 limits assumed, chain 2 of 3): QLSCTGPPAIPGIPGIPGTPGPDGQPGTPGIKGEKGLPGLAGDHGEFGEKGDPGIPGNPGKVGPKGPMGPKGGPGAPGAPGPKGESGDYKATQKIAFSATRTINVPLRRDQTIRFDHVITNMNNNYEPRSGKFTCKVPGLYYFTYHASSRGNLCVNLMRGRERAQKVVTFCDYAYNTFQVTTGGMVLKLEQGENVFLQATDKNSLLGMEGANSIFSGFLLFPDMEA
T2 sequence (P02747 29-245 limits assumed, chain 3 of 3): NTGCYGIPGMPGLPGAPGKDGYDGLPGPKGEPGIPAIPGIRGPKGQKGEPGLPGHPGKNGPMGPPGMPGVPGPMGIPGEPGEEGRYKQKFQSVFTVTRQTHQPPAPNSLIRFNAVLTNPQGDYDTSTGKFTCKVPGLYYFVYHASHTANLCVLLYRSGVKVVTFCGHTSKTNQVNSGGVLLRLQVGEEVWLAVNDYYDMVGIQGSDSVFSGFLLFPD

human FLT3 on AML5 cells [2] = molecular target: T1, human FLT3 on AML5 cells; test: cell-based or functional assay
[3] = molecular target: T2, recombinant human C1q protein …; test: ELISA; test protein immobilised in serial dilution, recombinant human C1q added, anti-C1q-HRP; remark: listed apart in the source
human FLT3 on AML5 cells [4] = molecular target: T1, human FLT3 on AML5 cells; test: cell-based or functional assay; remark: listed apart in the source
human FLT3 on AML5 cells [5] = molecular target: T1, human FLT3 on AML5 cells; test: cell-based or functional assay; remark: listed apart in the source
human FLT3 on AML5 cells [6] = molecular target: T1, human FLT3 on AML5 cells; test: cell-based or functional assay; remark: listed apart in the source
human FLT3 on AML5 cells [7] = molecular target: T1, human FLT3 on AML5 cells; test: cell-based or functional assay; remark: listed apart in the source

Binder	binding result [1]	EC50 (nM), AML5 Proliferation Assay (human FLT3 on AML5 cells [2]) [nM]	binding result [3]	EC50 (nM), Inducing Proliferation of AML5 Cells (human FLT3 on AML5 cells [4]) [nM]	EC50 (nM), AML5 Proliferation Assay (human FLT3 on AML5 cells [5]) [nM]	EC50 (nM), Inducing Proliferation of AML5 Cells (human FLT3 on AML5 cells [6]) [nM]	EC50 (nM), Inducing Proliferation of AML5 Cells (human FLT3 on AML5 cells [7]) [nM]
B1	no binding (tested: 94 nM (top of the titration))	0.046	–	–	–	–	–
B2	–	0.05	no binding (tested: 94 nM (top of the titration))	0.04	0.08	0.034	0.078
B3	–	–	no binding (tested: 94 nM (top of the titration))	–	0.078	–	–
B4	no binding (tested: 94 nM (top of the titration))	0.037	–	–	–	–	–
B5	–	–	no binding (tested: 94 nM (top of the titration))	–	0.083	–	–
B6	–	–	no binding (tested: 94 nM (top of the titration))	–	0.071	–	–
